Experimental data reported in patent publication US20040038299A1 (Pfizer, published 2004).

Target: T1, N-terminal FLAG-tagged full length LTβR (UniProt P36941 31-435)
T1 construct: whole, on cells; Overexpressed in HEK293 cells, immunoprecipitated from lysate with M2 beads; also called Flag-tagged LTβR; pFlag-CMV2-LTβR; not shown: N-terminal FLAG tag from pFLAG-CMV2
Assay: co-immunoprecipitation in transfected HEK293 cells, Western blot
Experimental: For immunoprecipitation, 1×10⁸ U937 cells were treated with FLAG-LIGHT at 20 ng/ml for different time or left untreated. Cells were then harvested and lysed in 4 ml of lysis buffer (see above). Cell debris was removed by centrifugation at 14,000+ g for 10 min and resulting lysate was pre-cleared with Gamma Binding beads (Pharmacia Biotech) for 1 hour at 4° C. Then 20 µl of M2 beads were added to cell lysate and incubated at 4° C. for 3 hours. After binding, beads were washed five times with lysis buffer. Immune complexes bound to the beads were eluted with sample buffer, resolve on 4-12% SDS-PAGE gels, transferred to PVDF membrane and probed with TRAF2, TRAF3 or cIAP1 antibody. Signals were detected with HRP-conjugated secondary antibody and ECL detection kits (Amersham Pharmacia Biotech). […] The presence of Smac, LTβR, TRAF2 and cIAP1 in the immune complex were then analyzed by Western blots.
Although two peptides from Smac in the LIGHT-LTβR complex were detected by mass spectrometry, an endogenous association was not detected using Smac antibodies (Alexis Biochemicals or Cell Signaling Technology). […] Smac was expressed as a C-terminal HA-tagged fusion protein and appeared as a doublet of 28 kDa and 23 kDa on the Western blot. […]

T1 sequence (P36941 31-435): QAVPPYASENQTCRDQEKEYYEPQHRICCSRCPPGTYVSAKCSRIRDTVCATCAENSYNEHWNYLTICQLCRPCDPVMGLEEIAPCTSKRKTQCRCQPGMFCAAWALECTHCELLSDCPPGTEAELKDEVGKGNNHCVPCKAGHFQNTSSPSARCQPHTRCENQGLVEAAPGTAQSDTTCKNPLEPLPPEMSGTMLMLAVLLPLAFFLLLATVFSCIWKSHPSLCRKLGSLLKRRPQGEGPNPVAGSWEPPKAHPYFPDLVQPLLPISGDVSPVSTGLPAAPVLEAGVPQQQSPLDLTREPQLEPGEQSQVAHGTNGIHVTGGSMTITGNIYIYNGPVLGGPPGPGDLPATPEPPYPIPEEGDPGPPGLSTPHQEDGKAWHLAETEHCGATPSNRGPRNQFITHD

B1: Δ76 deletion mutant of Smac with a C-terminal HA-tag (other)
chain: RAVSLVTDSTSTFLSQTTYALIEAITEYTKAVYTLTSLYRQYTSLLGKMNSEEEDEVWQVIIGARAEMTSKHQEYLKLETTWMTAVGLSEMAAEAAYQTGADQASITARNHIQLVKLQVEEVHQLSRKAETKLAEAQIEELRQKTQEEGEERAESEQEAYLRED
notes: also called ?76Smac; ?76 Smac; not shown: C-terminal HA tag
binding result: no binding
